± gives the uncertainty stated by the source.
Experiment: amyloid nucleation score (Sup35N fusion, yeast selection) (log enrichment); library NNK1; higher = more nucleation; inactive = no reads after selection
Procedure, shortened: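 The nucleation score equals the log enrichment of output over input reads from DiMSum, centred on the mode score of non-aggregating sequences. It was computed only for sequences with 100 or more input reads. The reads came from Illumina sequencing of plasmid inserts from psi-negative yeast expressing Sup35N fused to peptides of 20 random codons, induced with 100 μM copper sulfate for 24 hours and grown 7 days at 30°C without adenine and uracil.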

Substance | amyloid nucleation score
RLYWWDVMTSNMFVMAFRSR | inactive
SELRSWFL | -0.109 ± 1.2
YMNIVDVLAWGDRWVLLVWK | 0.425 ± 0.48
FFIETVYATKNYKHW | 2.76 ± 0.11
YQTGYGGCGYCRLVRGCVKV | -0.442 ± 0.33
WLRMYLGINFSVRYCGRRVE | 0.465 ± 0.48
TSVTSVMWPYSPNGYLAVFR | -0.062 ± 1.2
QQRLWRNAWTDMARKVSTSR | 0.452 ± 1.2
FKYSFMIYNLARSVCYCTVS | -0.002 ± 1.4
MCKYVMRVLHIVAG | 0.699 ± 0.42
LVTNAYTYSSTGIYDYVRPG | 0.093 ± 0.81
SLKFEYCFSPSNVAAVDWGT | -0.34 ± 0.98
STHCFWVTPGD | 0.483 ± 0.83
STCGCRPGLLFWARSPYN | -0.367 ± 0.63
THLLPFAGIGVCDLVRSAMG | 0.668 ± 0.93
YALGVAFSQNSYDT | 0.669 ± 0.63
HVFPHLWKYYCMAVALVFLR | 1.38 ± 0.61
LVVHTVRVQDR | -0.043 ± 0.41
MVDPRVTS | -0.86 ± 1.1
FAGSSGRCTPGSGFQGSIVT | -0.167 ± 0.33
RIVSSFLLSVVGCGMEVVRV | 0.349 ± 0.63
VLDFLYILCVTLANDFLKGW | 0.961 ± 0.76

Substance | amyloid nucleation score
GMCSEGTFKRQLISMHTCRT | 0.247 ± 0.79
DASLQWYVDSLKFCWV | 0.18 ± 0.36
YRCNT | -0.244 ± 0.32
YWGFGYPMFLNINMCLTSPE | 6.21 ± 0.091
LYCWVFSLSSMESNWLGQHT | -0.012 ± 0.29
TAILLNVFKCSIFWVALK | -0.691 ± 0.72
SAWSGR | 0.104 ± 0.3
IMKYPETGLAGRLLTGYTLS | 0.633 ± 0.61
GQYVWADLINVVRLWVFVSR | 0.503 ± 0.87
DLLETKWIPSLVYKSFESLW | -0.137 ± 0.63
TEGFGW | 1.28 ± 0.35
IMLVYMKTLGTM | 3.7 ± 0.071
VYIHTWIRVKIWSSS | 1.96 ± 0.65
LGESREVSGHDNRCWAFQ | 0.594 ± 0.49
AIFGVTPKSVITTYNFTLHM | 6.01 ± 0.088
MLRAGY | -0.292 ± 0.63
TGLVLVGMSVSCVRYRCSND | 0.009 ± 0.39
GIGLGFQ | -0.563 ± 0.53
GRVDWMCEYLKLMRSVGWSR | 0.545 ± 0.41
KIGLNCFE | inactive
TRQYIEVSVNLCYIVVDKKN | -0.203 ± 0.39
PILKQNHWRDFGNCLAKRRE | -0.281 ± 0.82

Substance | amyloid nucleation score
CERQNYVP | 0.326 ± 1.2
MYINGWYWTDGFIVNYQWMG | 0.626 ± 0.55
THMGWVMHYSYETTPHARPG | 3.84 ± 0.14
DQRRGFSMETSYTD | 1.42 ± 0.71
MCGNDWVYGDWIRSEIHGSS | -0.403 ± 0.59
TICSSTFNFCSCFVTYLRMG | 4.83 ± 0.072
VGSSVPGCRAGVFGLLDRCI | -0.489 ± 1.7
VCRTPSLRHHTFDVYFWSDV | -0.105 ± 1.4
NCLNAMVWSLLMLTDHLAPQ | -0.157 ± 0.72
GRNWLVGCVAQWHWSSLSWS | -1.11 ± 2.7
FKKNKQSSVKFGSNKSLQIG | 0.027 ± 0.51
NVGRSAICVRSCRMSLVFDG | 0.11 ± 0.35
YNHIEFGWCLLVGFVMRKSR | 3.53 ± 0.12
GRPNATIKNLVIFSEMFYSL | 4.68 ± 0.063
FDRHPGTYCDVKLLCREHSA | inactive
CLCMSC | 0.108 ± 0.43
RDASRVVCMRPRWGPFQVVV | 0.222 ± 0.69
VVWILMSAQNRMAPRFDVLT | 1.06 ± 0.51
VFAVLRLPPKMTARSMGASP | 0.661 ± 0.61
PSSYF | 0.45 ± 0.47
NYTNTMWSSFLDYVVD | 0.272 ± 0.88
GCFRGPTGLCG | -0.271 ± 0.66

Substance | amyloid nucleation score
TRKWEYTSKVRVQRGSVYLL | 0.13 ± 0.65
YPLFCNDHVGSSTLRRR | -0.065 ± 0.35
VMVIMDS | 2.11 ± 0.21
VTDCKLMCTVRPVSGSKTPV | 0.139 ± 0.34
LRRLNRHFIVTFFNGTRCDF | 2.1 ± 0.26
CKKELFKT | 0.77 ± 0.66
WNYTGSFFMQYSMGISRRDG | 1.59 ± 0.2
MLTQPAEAKEARVSFCSLYM | 1.01 ± 0.53
VRVFGVTEYNRSCSI | -0.847 ± 1.1
YLIDSSTPDFR | 0.314 ± 0.3
NQANQSQPCTDSFILRNGVV | inactive
YMTWL | 0.676 ± 0.44
AEWLWEVGGMGCQVKGEEAR | -0.34 ± 0.36
SCIVLYMKGSGISCTNYTYC | 6.094 ± 0.054
FHVSDV | -0.125 ± 0.98
GKHGQDFNSYRRVWLKSYLC | 1.07 ± 0.52
IYCVGDFVP | -0.026 ± 0.35
HYVVG | -0.784 ± 0.74
LISFSCVVNSLAEPRYIFLS | 1.13 ± 0.88
CTSDHSSFAKFLLLTCCLLL | 0.841 ± 0.92

Source: the supplement of paper PMC12042874
